{"source": "IntAct's records for PubMed 32296183", "parents": {"B1": {"name": "Catenin alpha-3 (Homo sapiens), Q9UI47-2 (parent)", "chain": "MSAETPITLNIDPQDLQVQTFTVEKLLEPLIIQVTTLVNCPQNPSSRKKGRSKRASVLLASVEEATWNLLDKGEKIAQEATVLKDELTASLEEVRKESEALKVSAERFTDDPCFLPKREAVVQAARALLAAVTRLLILADMIDVMCLLQHVSAFQRTFESLKNVANKSDLQKTYQKLGKELENLDYLAFKRQQDLKSPNQRDEIAGARASLKENSPLLHSICSACLEHSDVASLKASKDTVCEEIQNALNVISNASQGIQNMTTPPEPQAATLGSALDELENLIVLNPLTVTEEEIRPSLEKRLEAIISGAALLADSSCTRDLHRERIIAECNAIRQALQDLLSEYMNNAGKKERSNTLNIALDNMCKKTRDLRRQLRKAIIDHVSDSFLDTTVPLLVLIEAAKNGREKEIKEYAAIFHEHTSRLVEVANLACSMSTNEDGIKIVKIAANHLETLCPQIINAALALAARPKSQAVKNTMEMYKRTWENHIHVLTEAVDDITSIDDFLAVSGMFLFF", "partner": "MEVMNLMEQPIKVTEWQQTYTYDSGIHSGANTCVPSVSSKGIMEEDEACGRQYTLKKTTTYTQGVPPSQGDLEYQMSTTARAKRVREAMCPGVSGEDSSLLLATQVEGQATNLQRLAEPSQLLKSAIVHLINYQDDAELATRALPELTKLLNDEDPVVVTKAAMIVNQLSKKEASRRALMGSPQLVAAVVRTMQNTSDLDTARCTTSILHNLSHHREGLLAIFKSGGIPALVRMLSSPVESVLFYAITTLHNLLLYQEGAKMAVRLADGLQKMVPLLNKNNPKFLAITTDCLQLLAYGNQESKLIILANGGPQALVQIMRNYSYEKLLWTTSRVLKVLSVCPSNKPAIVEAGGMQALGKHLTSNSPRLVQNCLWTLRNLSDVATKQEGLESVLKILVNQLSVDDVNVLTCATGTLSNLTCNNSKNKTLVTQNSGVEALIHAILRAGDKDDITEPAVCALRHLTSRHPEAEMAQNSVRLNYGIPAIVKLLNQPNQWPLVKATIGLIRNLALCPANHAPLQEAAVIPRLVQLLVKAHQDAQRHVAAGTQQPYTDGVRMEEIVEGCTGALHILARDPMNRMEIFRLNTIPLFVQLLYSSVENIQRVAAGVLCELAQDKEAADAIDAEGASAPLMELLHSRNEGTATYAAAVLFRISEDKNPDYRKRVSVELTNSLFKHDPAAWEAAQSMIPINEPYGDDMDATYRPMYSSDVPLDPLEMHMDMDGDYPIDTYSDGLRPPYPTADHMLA"}, "B2": {"name": "Golgi SNAP receptor complex member 2 (Homo sapiens), O14653 (parent)", "chain": "MDPLFQQTHKQVHEIQSCMGRLETADKQSVHIVENEIQASIDQIFSRLERLEILSSKEPPNKRQNARLRVDQLKYDVQHLQTALRNFQHRRHAREQQERQREELLSRTFTTNDSDTTIPMDESLQFNSSLQKVHNGMDDLILDGHNILDGLRTQRLTLKGTQKKILDIANMLGLSNTVMRLIEKRAFQDKYFMIGGMLLTCVVMFLVVQYLT", "partner": "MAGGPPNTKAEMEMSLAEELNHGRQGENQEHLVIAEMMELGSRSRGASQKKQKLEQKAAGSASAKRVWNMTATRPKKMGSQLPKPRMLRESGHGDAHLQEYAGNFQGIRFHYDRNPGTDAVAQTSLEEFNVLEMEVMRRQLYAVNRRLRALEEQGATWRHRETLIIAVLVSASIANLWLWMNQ"}}, "data": [{"variants_of": "B1", "conditions": "with plak_human JUP", "values": [{"variant": "MSAETPITLNIDPQDLQVQTFTVEKLLEPLIIQVTTLVNCPQNPSSRKKGRSKRASVLLASVEEATWNLLDKGEKIAQEATVLKDELTASLEEDRKESEALKVSAERFTDDPCFLPKREAVVQAARALLAAVTRLLILADMIDVMCLLQHVSAFQRTFESLKNVANKSDLQKTYQKLGKELENLDYLAFKRQQDLKSPNQRDEIAGARASLKENSPLLHSICSACLEHSDVASLKASKDTVCEEIQNALNVISNASQGIQNMTTPPEPQAATLGSALDELENLIVLNPLTVTEEEIRPSLEKRLEAIISGAALLADSSCTRDLHRERIIAECNAIRQALQDLLSEYMNNAGKKERSNTLNIALDNMCKKTRDLRRQLRKAIIDHVSDSFLDTTVPLLVLIEAAKNGREKEIKEYAAIFHEHTSRLVEVANLACSMSTNEDGIKIVKIAANHLETLCPQIINAALALAARPKSQAVKNTMEMYKRTWENHIHVLTEAVDDITSIDDFLAVSGMFLFF", "note": "[V94D]", "effect of a mutation on the interaction": "disrupting interaction strength"}]}, {"variants_of": "B2", "conditions": "with fate1_human FATE1, Q969F0", "values": [{"variant": "MDPLFQQTHKQVHEIQSCMGRLETADKQSVHIVENEIQASIDQIFSRLERLEILSSKEPPNKRQNARLRVDQLKYDVQHLQTALRNFQHRRHAREQQERQREELLSRTFTTNDSDTTIPMDESLQFNSSLQKVHNGMDDLILDWHNILDGLRTQRLTLKGTQKKILDIANMLGLSNTVMRLIEKRAFQDKYFMIGGMLLTCVVMFLVVQYLT", "note": "[G144W]", "effect of a mutation on the interaction": "with no effect"}]}]}
